Data: patent US20200255511A1 (TILLOTTS PHARMA, published 2020)

T1: CD32a (H) (UniProt P12318 36-218)
T1 construct: Captured by its His-tag
T1 sequence (looked up): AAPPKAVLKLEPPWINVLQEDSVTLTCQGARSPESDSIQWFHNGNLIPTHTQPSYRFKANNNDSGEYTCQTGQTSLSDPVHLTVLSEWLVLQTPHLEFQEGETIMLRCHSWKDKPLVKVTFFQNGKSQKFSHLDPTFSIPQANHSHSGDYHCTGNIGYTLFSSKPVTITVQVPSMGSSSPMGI

T2: CD32b (UniProt P31994 43-217)
T2 construct: Captured by its His-tag
T2 sequence (looked up): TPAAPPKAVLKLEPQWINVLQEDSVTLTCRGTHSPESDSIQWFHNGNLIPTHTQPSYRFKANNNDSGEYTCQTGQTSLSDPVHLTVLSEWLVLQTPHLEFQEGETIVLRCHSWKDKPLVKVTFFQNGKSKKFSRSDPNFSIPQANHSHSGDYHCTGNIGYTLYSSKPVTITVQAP

T3: CD32a (R) (UniProt P12318 36-218)
T3 construct: Captured by its His-tag
T3 sequence (looked up): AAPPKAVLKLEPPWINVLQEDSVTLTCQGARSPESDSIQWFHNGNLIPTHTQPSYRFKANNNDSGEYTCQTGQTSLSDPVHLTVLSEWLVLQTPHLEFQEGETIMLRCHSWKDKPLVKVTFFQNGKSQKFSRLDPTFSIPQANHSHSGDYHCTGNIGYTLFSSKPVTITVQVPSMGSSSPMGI


How the values were obtained:
[1] = target: T4, CD64 (UniProt P12314 16-288, limits assumed); test: SPR (Biacore), His-tagged FcγR captured on anti-His chip, antibody as analyte, 25 °C
T4 construct: Captured on the chip by its His-tag; also called Fcγ receptor CD64
T4 sequence (P12314 16-288 limits assumed): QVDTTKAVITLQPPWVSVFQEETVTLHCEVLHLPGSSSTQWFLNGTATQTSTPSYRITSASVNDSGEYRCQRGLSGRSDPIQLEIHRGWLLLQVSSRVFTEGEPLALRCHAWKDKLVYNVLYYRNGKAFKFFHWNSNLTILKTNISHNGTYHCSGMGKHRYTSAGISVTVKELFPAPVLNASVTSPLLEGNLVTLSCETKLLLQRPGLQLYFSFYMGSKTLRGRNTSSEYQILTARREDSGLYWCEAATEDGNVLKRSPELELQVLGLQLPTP
Description: (§1) Affinity to FcγRs was measured by Biacore. A CM5 chip was prepared using standard amine immobilisation Biacore procedures. Upon insertion of a CM5 chip the system was primed and then normalised with BIA-normalizing solution (Biacore Preventative Maintenance Kit 2). The chip was added to the system with PBS-T running buffer; prior to immobilisation the chip surface was primed with three injections of 50 mM NaOH. FcγRs were immobilised on the chip surface using a His-tag capture system. The anti-His tag chip was prepared according to the Biacore kit instructions, with ˜12000 RU's of the antibody deposited on all 4 flow cells. To remove non-covalently bound material from all the chip flow cells, three 30 second 10 mM glycine pH 1.5 washes were performed. The Fcγ receptors were diluted in PBS-T to a range of 0.5-2 μg/mL, with 2.5-5.0 μL injected onto the chip generating capture levels between 60 and 200 RU's. Antibodies were diluted into PBS-T prior to analysis. Single cycle kinetics were used to estimate the steady state affinity. For each single cycle analysis cycle a titration of 5 antibody concentrations were injected over the FcγR ligand and then the dissociation of the complex was measured. The surface was regenerated using the recommended solution, 10 mM glycine pH 1.5 for the anti-His capture surface. A double referencing method was employed in which data from the ligand bound capture surface (fc 2 and 4) were subtracted from the references surfaces where no ligand was captured (fc 1 and 3 respectively). Blank injections of buffer were run for every antibody titration cycle and then subtracted from analyte injection cycles, to correct for small changes in the ligand capture surface. All analysis was performed at 25° C. and the sample rack was incubated at 10° C. during experimental runs. Each experiment was run at least three times.

[2] = target: T1, CD32a (H); test: as above
Description: as §1

[3] = target: T2, CD32b; test: as above
Description: as §1

[4] = target: T5, CD16a (V) (UniProt P08637 17-208); test: as above
T5 construct: Captured by its His-tag
T5 sequence (P08637 17-208 F176V limits assumed): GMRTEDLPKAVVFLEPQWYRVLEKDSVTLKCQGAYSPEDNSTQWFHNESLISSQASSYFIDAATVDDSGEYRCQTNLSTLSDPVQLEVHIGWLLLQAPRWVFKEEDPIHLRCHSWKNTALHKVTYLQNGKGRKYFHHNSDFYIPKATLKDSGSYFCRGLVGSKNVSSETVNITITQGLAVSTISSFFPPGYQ
Description: as §1
(§2) The mean and standard deviation affinity calculated from two or more independent experiments is shown.

[5] = target: T6, human TNFα (human, UniProt P01375 77-233); test: SPR (Biacore), antibody captured on Protein A, TNFα as analyte, single cycle kinetics, 25 °C
T6 construct: also called recombinant TNFα
T6 sequence (P01375 77-233 limits assumed): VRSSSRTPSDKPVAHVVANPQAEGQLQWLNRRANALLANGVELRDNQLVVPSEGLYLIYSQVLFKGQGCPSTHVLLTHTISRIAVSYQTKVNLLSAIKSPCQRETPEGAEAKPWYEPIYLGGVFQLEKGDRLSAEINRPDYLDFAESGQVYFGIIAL
Description: Affinity to TNFα was measured by Biacore. A CM5 chip was prepared using standard amine immobilisation Biacore procedures. Upon insertion of a CM5 chip the system was primed and then normalised with BIA-normalising solution (Biacore Preventative Maintenance Kit 2). The chip was added to the system with PBS-T running buffer; prior to immobilisation the chip surface was primed with three injections of 50 mM NaOH. Protein A was immobilised on the chip surface. For this, the protein was diluted to 5 μg/mL into 10 mM acetate buffer at pH 4.5 and injected so to generate a bound response of ˜1000 RU's in all 4 flow cells. To remove non-covalently bound material from all the chip flow cells, three 15 second 50 mM NaOH washes were performed. On the Protein A chip, antibody was captured in flow cells 2 and 4, with flow cells 1 and 3 used for reference subtraction. The trial antibodies were diluted in PBS-T to 10 nM and 2.5-7.5 uL injected to obtain 120 RU of captured antibody. The analyte TNFα was prepared at 500 μg/mL in water as directed by the supplier and further diluted into the running buffer Phosphate Buffered Saline Tween-20 (PBS-T). Single cycle kinetics was used to estimate the steady state affinity. For each single cycle analysis cycle a titration of 5 analyte concentrations were injected over the ligand and then the dissociation of the complex was measured. The surface was regenerated using glycine pH 1.7. A double referencing method was employed in which data from the ligand bound capture surface (fc 2 and 4) were subtracted from the references surfaces where no ligand was captured (fc 1 and 3 respectively). Blank injections of buffer were run every 3-4 cycles and then subtracted from analyte injection cycles, to correct for small changes in the ligand capture surface. Repeat injections of analyte at the start and end of each analytical run were used to check for sample degradation, or changes in the instrument performance. All analysis was performed at 25° C. and the sample rack was incubated at 10° C. during experimental runs. Each experiment was run at least three times. A 1-to-1 binding model was used to fit the resulting kinetic data.

[6] = target: T7, monomeric His-tagged human FcRn (human, UniProt P55899 24-297; P61769 21-119, limits assumed); test: SPR (Biacore 3000) at pH 6.0, antibody amine-coupled, monomeric His-tagged hFcRn as analyte, 25 °C; pH 6.0
T7 construct: also called hFcRn
Description: (§3) SPR was performed using a Biacore 3000 instrument with CM5 sensor chips coupled with anti-TNFα IgG1 antibodies (˜500 resonance units (RU)) using amine-coupling chemistry as described by the manufacturer. The coupling was performed by injecting 2.0 ug/mL of each protein in 10 mM sodium acetate, pH 4.5, using the amine-coupling kit (GE Healthcare). […] All SPR experiments were conducted at 25° C. with a flow rate of 40 ul/min. Binding data were zero-adjusted, and reference cell value subtracted. The Langmuir 1:1 ligand binding model provided by the BIAevaluation software (version 4.1) was used to determine the binding kinetics.

[7] = target: T6, human TNFα; test: cell-based or functional assay
[8] = target: T7, monomeric His-tagged human FcRn; test: SPR at pH 6.0, KD against that of IFX; pH 6.0; fold change from IFX
Description: as §3

[9] = target: T7, monomeric His-tagged human FcRn; test: SPR at pH 6.0, KD against that of Ab-wt; pH 6.0; fold change from Ab-wt
Description: as §3

[10] = target: T3, CD32a (R); test: SPR (Biacore), His-tagged FcγR captured on anti-His chip, antibody as analyte, 25 °C
Description: as §1

[11] = target: T8, CD16a (F) (UniProt P08637 17-208); test: as above
T8 construct: Captured by its His-tag
T8 sequence (P08637 17-208 limits assumed): as the sequence (P08637 17-208 F176V limits assumed) above, with V160F counted along it
Description: as §1, §2

[12] = target: T9, CD16b (NA2) (UniProt O75015 17-200, limits assumed); test: as above
T9 construct: Captured by its His-tag
T9 sequence (O75015 17-200 N65S limits assumed): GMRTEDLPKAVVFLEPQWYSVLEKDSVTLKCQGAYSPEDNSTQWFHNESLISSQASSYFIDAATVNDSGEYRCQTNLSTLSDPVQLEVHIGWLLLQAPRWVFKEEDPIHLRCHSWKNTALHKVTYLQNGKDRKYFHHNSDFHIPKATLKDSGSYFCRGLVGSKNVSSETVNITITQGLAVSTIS
Description: as §1, §2

[13] = target: T5, CD16a (V); test: SPR (Biacore), His-tagged FcγR captured; the sentence names no reference (Ab-wt by Table 5)
Description: Affinity to FcγRs was measured by Biacore. A CM5 chip was prepared using standard amine immobilisation Biacore procedures. Upon insertion of a CM5 chip the system was primed and then normalised with BIA-normalizing solution (Biacore Preventative Maintenance Kit 2). The chip was added to the system with PBS-T running buffer; prior to immobilisation the chip surface was primed with three injections of 50 mM NaOH. FcγRs were immobilised on the chip surface using a His-tag capture system. The anti-His tag chip was prepared according to the Biacore kit instructions, with ˜12000 RU's of the antibody deposited on all 4 flow cells. To remove non-covalently bound material from all the chip flow cells, three 30 second 10 mM glycine pH 1.5 washes were performed. The Fcγ receptors were diluted in PBS-T to a range of 0.5-2 μg/mL, with 2.5-5.0 μL injected onto the chip generating capture levels between 60 and 200 RU's. Antibodies were diluted into PBS-T prior to analysis. Single cycle kinetics were used to estimate the steady state affinity. For each single cycle analysis cycle a titration of 5 antibody concentrations were injected over the FcγR ligand and then the dissociation of the complex was measured. The surface was regenerated using the recommended solution, 10 mM glycine pH 1.5 for the anti-His capture surface. […]

[14] = target: human C1q (human, UniProt P02745 23-245; P02746 28-253; P02747 29-245); test: ELISA: antibody titrated onto plate-coated human TNFα (1 µg/mL), then human C1q (0.5 µg/mL), detected with rabbit anti-human C1q and HRP anti-rabbit IgG, absorbance 620 nm
Sequence of human C1q (P02745 23-245 limits assumed, chain 1 of 3): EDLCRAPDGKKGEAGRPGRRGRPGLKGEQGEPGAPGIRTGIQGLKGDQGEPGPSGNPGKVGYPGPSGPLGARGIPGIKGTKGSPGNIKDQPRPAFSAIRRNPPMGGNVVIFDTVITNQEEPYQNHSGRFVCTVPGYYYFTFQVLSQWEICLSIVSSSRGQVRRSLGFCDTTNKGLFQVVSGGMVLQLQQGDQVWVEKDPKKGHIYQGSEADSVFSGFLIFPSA
Sequence of human C1q (P02746 28-253 limits assumed, chain 2 of 3): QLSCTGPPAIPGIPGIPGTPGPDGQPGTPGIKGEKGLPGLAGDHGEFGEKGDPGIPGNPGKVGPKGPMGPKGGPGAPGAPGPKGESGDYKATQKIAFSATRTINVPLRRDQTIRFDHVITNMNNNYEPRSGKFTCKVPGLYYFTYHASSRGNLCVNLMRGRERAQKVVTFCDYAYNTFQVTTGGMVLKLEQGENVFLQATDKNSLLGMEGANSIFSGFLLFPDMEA
Sequence of human C1q (P02747 29-245 limits assumed, chain 3 of 3): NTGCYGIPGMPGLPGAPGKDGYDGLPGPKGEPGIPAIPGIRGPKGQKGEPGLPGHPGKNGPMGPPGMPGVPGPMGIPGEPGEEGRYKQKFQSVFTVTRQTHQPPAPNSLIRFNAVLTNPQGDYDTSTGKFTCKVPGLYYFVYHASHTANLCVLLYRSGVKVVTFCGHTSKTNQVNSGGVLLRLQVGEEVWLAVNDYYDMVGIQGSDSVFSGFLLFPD
Description: ELISA was performed using 96-well MaxiSorp plates where the wells were coated with human TNFα diluted to 1 μg/mL in PBS. After incubation O/N at 4° C., the plates were blocked with PBS containing 4% skimmed milk for 1 h and washed four times with PBS containing 0.05% Tween-20 (PBS-T). Then, titrated amounts of the anti-TNFα IgG antibodies were diluted in PBS-T, added and incubated for 1h at RT. After washing using PBS-T, human C1q (0.5 μg/mL) was diluted in 0.1 M Veronal buffer (0.25 mM CaCl₂ and 0.8 mM MgCl₂ pH 7.2), added to the wells and incubated for 1 h. Subsequently, the wells were washed as above before rabbit anti-human C1q diluted 1:5000 in PBS-T was added to the wells and incubated for 1 h. After washing, an HRP-conjugated anti-rabbit IgG from donkey diluted 1:5000 in PBS-T was added. Subsequently, the wells were washed and 100 μL 3,3′,5,5′-Tetramethylbenzidine substrate was added to each well. The absorbance was measured at 620 nm using a Sunrise spectrophotometer.
The anti-TNFα antibody variants were captured on human TNFα before human C1q was added.

Row | Binder | Kd [1] [nM] | Kd [2] [nM] | Kd [3] [nM] | Kd [4] [nM] | Kd [5] [pM] | koff [5] [s⁻¹] | kon [5] [M⁻¹ s⁻¹] | Kd [6] [nM] | IC50 (read off the curve) [7] [ng/mL] | Fold change from IFX [8] [fold] | Fold change from wt [9] [fold] | Kd [10] [nM] | Kd [11] [nM] | Kd [12] [nM] | fold increase in affinity [13] [fold] | EC50 (read off the curve) [14] [µg/mL]
1 | Ab-wt (antibody, human IgG1, kappa, Human IgG1 anti-TNFα antibody with wild-type Fc; also called parent antibody; wild-type antibody) heavy: not shown light: DIQMTQSPSSLSASVGDRVTIKCQASQSIFSGLAWYQQKPGKAPKLLIYGASKLASGVPSRFSGSGSGTEFTLTISGLQPADFATYYCQSYYYSSSSSDGSYAFGGGTKLTVLGRTVAAPSVFIFPPSDEQLKSGTASVVCLLNNFYPREAKVQWKVDNALQSGNSQESVTEQDSKDSTYSLSSTLTLSKADYEKHKVYACEVTHQGLSSPVTKSFNRGEC | 2.92 | 670 | 3140 | 184 | 4.13 | 3.45e-05 | 8.37e+06 | 1000 | – | – | – | – | – | – | – | –
2 | infliximab (antibody) chain 1: not shown chain 2: DILLTQSPAILSVSPGERVSFSCRASQFVGSSIHWYQQRTNGSPRLLIKYASESMSGIPSRFSGSGSGTDFTLSINTVESEDIADYYCQQSHSWPFTFGSGTNLEVKRTVAAPSVFIFPPSDEQLKSGTASVVCLLNNFYPREAKVQWKVDNALQSGNSQESVTEQDSKDSTYSLSSTLTLSKADYEKHKVYACEVTHQGLSSPVTKSFNRGEC | – | – | – | – | – | – | – | – | – | – | – | – | – | – | – | ~0.6

Results, then the binder that gave them:

Row | Kd [1] [nM] | Kd [2] [nM] | Kd [3] [nM] | Kd [4] [nM] | Kd [5] [pM] | koff [5] [s⁻¹] | kon [5] [M⁻¹ s⁻¹] | Kd [6] [nM] | IC50 (read off the curve) [7] [ng/mL] | Fold change from IFX [8] [fold] | Fold change from wt [9] [fold] | Kd [10] [nM] | Kd [11] [nM] | Kd [12] [nM] | fold increase in affinity [13] [fold] | EC50 (read off the curve) [14] [µg/mL] | Binder
3 | 3.17 | 1170 | 1370 | 39.4 | 7.73 | 5.84e-05 | 7.55e+06 | 103 | ~8 | 4.1 | 9.7 | 1560 | 170 | 470 | 4.7 | ~0.7 | Ab-AA-2FF (antibody, human IgG1, kappa, N-glycans at N297 (EU) with greatly reduced fucose (<10% fucosylated); produced in the presence of 2-deoxy-2-fluoro-fucose (2FF), human IgG1; also called non-fucosylated variant of Ab-AA) heavy: not shown light: DIQMTQSPSSLSASVGDRVTIKCQASQSIFSGLAWYQQKPGKAPKLLIYGASKLASGVPSRFSGSGSGTEFTLTISGLQPADFATYYCQSYYYSSSSSDGSYAFGGGTKLTVLGRTVAAPSVFIFPPSDEQLKSGTASVVCLLNNFYPREAKVQWKVDNALQSGNSQESVTEQDSKDSTYSLSSTLTLSKADYEKHKVYACEVTHQGLSSPVTKSFNRGEC
4 | 3.59 | 1410 | 2170 | 707 | 2.47 | 2.06e-05 | 8.54e+06 | 119 | ~8 | 3.6 | 8.4 | 2050 | 1760 | 2240 | – | ~0.6 | Ab-AA (antibody, human IgG1, kappa, Human IgG1; also called E380A/N434A variant) heavy: not shown light: DIQMTQSPSSLSASVGDRVTIKCQASQSIFSGLAWYQQKPGKAPKLLIYGASKLASGVPSRFSGSGSGTEFTLTISGLQPADFATYYCQSYYYSSSSSDGSYAFGGGTKLTVLGRTVAAPSVFIFPPSDEQLKSGTASVVCLLNNFYPREAKVQWKVDNALQSGNSQESVTEQDSKDSTYSLSSTLTLSKADYEKHKVYACEVTHQGLSSPVTKSFNRGEC
